Experimental data as given in paper doi:10.1101/2022.01.25.477770 (bioRxiv, 2022).

T1: SARS-CoV spike peptide #154, PELDSFKEELDKYFKNH (SARS-CoV residues 1125–1141); corresponding to SARS-CoV-2 … (SARS-CoV, residues 1125-1141)
T1 construct: also called 17-residue peptide
T1 chain: PELDSFKEELDKYFKNH


Tests used:
[1] = biological target: hCoV-HKU1 prefusion-stabilized spike (S2P) (hCoV-HKU1 isolate N1 (AAT98580.1), UniProt Q5MQD0, stabilised); experiment: ELISA; settings: both partners purified
[2] = biological target: hCoV-OC43 prefusion-stabilized spike (S2P) (hCoV-OC43 (AAT84354.1), UniProt P36334, stabilised); experiment: ELISA; settings: both partners purified
[3] = biological target: SARS-CoV-2 S-dTM (soluble spike protein residues 1–1206 of wildtype WA-1 strain) (SARS-CoV-2 WA-1, UniProt P0DTC2); experiment: ELISA; settings: both partners purified
[4] = biological target: T2, SARS-CoV-2 S1-short (spike residues 1–670) (SARS-CoV-2, UniProt P0DTC2); experiment: ELISA; settings: both partners purified
T2 construct: also called S1-short1

[5] = biological target: SARS-CoV-2 S1R (spike residues 1–537) (SARS-CoV-2, UniProt P0DTC2); experiment: ELISA; settings: both partners purified
[6] = biological target: SARS-CoV-2 spike receptor-binding domain (RBD) (SARS-CoV-2, UniProt P0DTC2); experiment: ELISA; settings: both partners purified
[7] = biological target: SARS-CoV-2 spike N-terminal domain (NTD) (SARS-CoV-2, WA-1 / Wuhan-Hu-1, UniProt P0DTC2); experiment: ELISA; settings: both partners purified
[8] = biological target: T3, SARS-CoV-2 full-length spike, expressed on the cell surface (SARS-CoV-2 WA-1 (GenBank QHD43416.1), UniProt P0DTC2); experiment: flow cytometry on cells; settings: one partner purified
T3 construct: also called SARS-CoV-2 spike; WA-1 spike; source: Expi-293 cells, transiently transfected, on the cell surface

[9] = biological target: T4, MERS-CoV full-length spike, expressed on the cell surface (MERS-CoV EMC/2012 (GenBank AFS88936), UniProt K0BRG7); experiment: flow cytometry on cells; settings: one partner purified
T4 construct: also called MERS-CoV spike; MERS-CoV EMC

[10] = biological target: T5, hCoV-HKU1 full-length spike, expressed on the cell surface (hCoV-HKU1 isolate N1 (AAT98580.1), UniProt Q5MQD0); experiment: flow cytometry on cells; settings: one partner purified
T5 construct: also called hCoV-HKU1 spike; source: Expi-293 cells, transiently transfected, on the cell surface

[11] = biological target: T6, hCoV-OC43 full-length spike, expressed on the cell surface (hCoV-OC43 (AAT84354.1), UniProt P36334); experiment: flow cytometry on cells; settings: one partner purified
T6 construct: also called hCoV-OC43 spike; source: Expi-293 cells, transiently transfected, on the cell surface

[12] = biological target: T7, SARS-CoV-2 spike S2 subunit (SARS-CoV-2, UniProt P0DTC2); experiment: far-Western, overlay or dot blot; settings: both partners purified
T7 construct: also called S2 domain

[13] = biological target: T1, SARS-CoV spike peptide #154, …; experiment: far-Western, overlay or dot blot; settings: both partners purified
[14] = biological target: T7, SARS-CoV-2 spike S2 subunit; experiment: negative-stain EM; settings: both partners purified

| Binder | binding result [1] | binding result [2] | binding result [3] | binding result [4] | binding result [5] | binding result [6] | binding result [7] | binding result [8] | binding result [9] | binding result [10] | binding result [11] | binding result [12] | binding result [13] | binding result [14] |
| --- | --- | --- | --- | --- | --- | --- | --- | --- | --- | --- | --- | --- | --- | --- |
| antibody WS6 (IgG) (antibody, V domains shown, also called mAb WS6) VH: EVQFQQSGTVLARPGASVKMSCKASGYTFTNYWIHWVKQRPGQGLEYIGGTYPGNGDTTYNQKFKGKAKVTAVTPTSTAYMDLSSLTNEDSAVYYCTRTGSYFDYWGQGTTLTVSS VL: QIVLTQSPAIMSASPGEKVTISCSATSSVSYIYWYQQRPGSSPKPWIYRTSNLASGVPVRFSGSGSGTSYSLTISNMEAEDAATYYCQQYQSYPPTFGAGTKLELK | binds | binds | binds | no binding | no binding | no binding | no binding | binds | binds | binds | binds | binds | binds | – |
| antigen-binding fragment (Fab) of WS6 (Fab, V domains shown, also called Fab WS6; WS6 Fab; source: generated from the mAb with the Pierce Fab kit) VH: EVQFQQSGTVLARPGASVKMSCKASGYTFTNYWIHWVKQRPGQGLEYIGGTYPGNGDTTYNQKFKGKAKVTAVTPTSTAYMDLSSLTNEDSAVYYCTRTGSYFDYWGQGTTLTVSS VL: QIVLTQSPAIMSASPGEKVTISCSATSSVSYIYWYQQRPGSSPKPWIYRTSNLASGVPVRFSGSGSGTSYSLTISNMEAEDAATYYCQQYQSYPPTFGAGTKLELK | – | – | – | – | – | – | – | – | – | – | – | – | – | binds |
